Publication PMC3530536

Target: recombinant RRM2 domain (aa 190–265) of human WT TDP-43 (human) (UniProt Q13148)
Assay: SEC; Superdex 75 10/300 in PBS, 0.5 mL/min; soluble RRM2 2–3 mg/mL after heat at 70°C for 10 min, nucleotide-free

recombinant RRM2 domain (aa 190–265) of human WT TDP-43 (from UniProt Q13148 190-265) (domain or fragment)
stoichiometry N: 2
